According to the supplement of paper PMC9170038:

Assays:
MS2 coat protein [1] = assay: apparent KD of MS2 coat protein, switch ON state; designed switch direction (-1 OFF switch, 1 ON switch): 1; higher = weaker reporter binding; conditions: FMN input: 0 or 200 uM; Eterna round: R93 (includes R88 designs)
In short: (§1)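 Each design's apparent KD comes from the median of binding-curve fits to its normalised clusters. Those clusters carried RNA switches transcribed on-chip from Illumina sequencing clusters. SNAP-549-labelled MS2 coat protein was titrated onto them in twofold steps (0.7 or 1.5 nM to 3 µM; per step 0.8–1.5 h down to 10–20 min). Conditions were 100 mM Tris-HCl pH 7.5, 80 mM KCl, 4 mM MgCl2, without or with constant ligand.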

MS2 coat protein [2] = assay: apparent KD of MS2 coat protein, switch OFF state (with FMN for OFF switches, without FMN for ON switches); designed switch direction (-1 OFF switch, 1 ON switch): 1; higher = weaker reporter binding; conditions: FMN input: 0 or 200 uM; Eterna round: R93 (includes R88 designs)
In short: as §1

Sequence | apparent KD of MS2 coat protein (MS2 coat protein [1]) [nM] | apparent KD of MS2 coat protein (MS2 coat protein [2]) [nM]
AAAAACAUGGUGCAGGAUAUAUUAAUAGUCACAUGAGGAUCACCCAUGUUCAUUUAUAUGAACGAGUAGAAGGGCGAUGAAAAAA [Mat - Same state - Malcolm Mod - D111] | 247 | 410
AAAACACAUGAGGAUCACCCAUGUAGAAAUACGGGAGGAUAUACGAAAACGAAAGACAAAGUAGAAGGCCUAAAAG [saturn 7] | 38.7 | 53
AAAACACAUGAGGAUCACCCAUGUAGAAAUAUGGGAGGAUAUACGAAAACGAAAGACAAAGUAGAAGGCCUAAAAG [saturn 4] | 41.6 | 153
AAAACUACAGAUCAGGAUAUGUUUAGGUAAACAUGAGGAUCACCCAUGUGCACCUGAUAAACAACACAGAAGGGAUAACGUGGGA [Geerreleon] | 20.7 | 25.7
AAAAGACAUGAGGAUCACCCAUGUCAAAACAUAGGAGGAUAUGUCGUGAAAAAAGACUUGGCAGAAGGCCUUUGUC [SS1 - 48] | 17.3 | 19.3
AAAAGACAUGAGGAUCACCCAUGUCAAAACAUAGGAGGAUAUGUCUGGAAAAAAGACUGGACAGAAGGCCUUUGUC [SS1 - 59] | 15.5 | 18.9
AAAAGAGCGACACAGGAUAUGUUGACUCUAACAUGAGGAUCACCCAUGUGCAUUUAGGGUCGUGCGCAGAAGGGUGUAGCUCGGA [Laesbibiti] | 11.7 | 24.7
AAAAUAAAAUAAAAGGAUAUAAAAUAAAAAACAUGAGGAUCACCCAUGUGAAAACAUGAAAAAAAAAAGAAGGAAAAAUAAAAAA [SS2: 76 No MS2] | 21.3 | 31.6
AAAGAAGAAAGACAGGAUAUGGAUGGGUAAACAUGAGGAUCACCCAUGUAUAAGAAAGAAAGAAACCAGAAGGGUCAAAAGAAAA [Darius III] | 42.7 | 551
AAAUAAAUGACUAAGGAUAUAUCGAAGAAAACAUGAGGAUCACCCAUGUGAUAAUAAAAAGGGUGGUAGAAGGUAGUCAACAAAC [Mod 4 of Pariah 4 by Hyphema in Round 1] | 50.2 | 88
AAAUAACAUGAGGAUCACCCAUGUGGGCUUAAGCAAGGAUAUGGGCACUCAAAAGUAGCGCCAGAAGGUGCAGUCG [Anrabitien] | 56.1 | 145
AAAUAACAUGAGGAUCACCCAUGUUGCAACGGUACAGGAUAUGUGGGUGAAAAUAGCAUGACAGAAGGGUAGUGUA [SameState1 Malc#30] | 207 | 150
AAAUAGUGCAUUAAGGAUAUGUCGCAUGACACAUGAGGAUCACCCAUGUGGUAACACAGAGGGUGGCAGAAGGUAGUGUGCAAAC [Mod 3 of Pariah 6 (Round1) by Hyphema] | 108 | 15.1
AACAAACAUGAGGAUCACCCAUGUCAAACAAACCAAGGAUAUGGGAAGCGAGACUCGCUACCAGAAGGUGGAAAUU [Edtigebe] | 43.8 | 176
AACAAUCUAUCUGAGGAUAUCAUGAAAAAAACAUGAGGAUCACCCAUGUGCAGGAAAACUGCAUAUGAGAAGGCAGAUAGAUUGA [SS2: 1101] | 21.6 | 913
AACAAUCUAUCUGAGGAUAUCAUGUCAAAGACAUGAGGAUCACCCAUGUCUAGGAAAACUAGAUAUGAGAAGGCAGAUAGAUUGA [SS2 :P - 597] | 23.2 | 126
AACAAUCUAUCUGAGGAUAUGUGUCGAAAGACAUGAGGAUCACCCAUGUGAAAACAUGGGAAAACACAGAAGGCAGAUAGAUUGA [SS2: 1152] | 54.9 | 33.2
AACUAACAUGAGGAUCACCCAUGUUACAGCAGUUGAGGAUAUGUGGGUGAAAAUAGCAUGGCAGAAGGCGAGUGUA [SameState1 Malc#24] | 53.9 | 127
AAGAAACAUGAGGAUCACCCAUGUAAUAAUAUGGGAGGAUAUACAAGGACGUAAGUCAAGGUAGAAGGCCUAAGAA [Mat - Same State 1 - Meechl mod - D141] | 21 | 137
AAGAAACAUGAGGAUCACCCAUGUAGAAAUAUGGGAGGAUAUACAAAGACGAAAGUCAAAGUAGAAGGCCUAAGAA [Mat - Same State 1 - Meechl mod - D129] | 16.6 | 63.2
AAGAAAGUUUACGAGGAUAUGUUCCGCAGUACAUGAGGAUCACCCAUGUGAACACGAAGGGCGACGCAGAAGGCGUGAGCAAUGA [Orononed] | 30.9 | 89.2
AAUAAAAAUAGUCAGGAUAUGAGAACUAAGACAUGAGGAUCACCCAUGUAAACAGAACAAGUAAAUCAGAAGGGACAGGGUGAAA [JR_SS002_Sub201] | 39.3 | 30.2
AAUAACAAAAGAAAGGAUAUGCGCACAGGAACAUGAGGAUCACCCAUGUGGCCCGAAAGGGCAUAGCAGAAGGUUCACACGCAUA [Default title] | 32.7 | 42
AAUACACAUGAGGAUCACCCAUGUAGAAACAAGUCAGGAUAUCCGAUCCACAUGUGAUAAGGAGAAGGGACAAUAA [SS 1 Tesla 7] | 25.5 | 163
AAUACACAUGGUCAGGAUAUCGCAGCUAGGACAUGAGGAUCACCCAUGUCGUACGUAACCGUAAAUGAGAAGGGACAGGGUGACC [JR_SS002_Sub408] | 145 | 54.1
AAUAUAUUAAGCGAGGAUAUCGAGGAAAAAACAUGAGGAUCACCCAUGUGGGUAAAAAAAAAAAGUGAGAAGGUGCUUAAUAUAU [Samwise Clockwise 9 - Jieux - Same State 2] | 31.8 | 74.7
AAUAUAUUAAGUGAGGAUAUCGAGAAAAAAACAUGAGGAUCACCCAUGUGGGAAACAUGGUAGGGUGAGAAGGUACUUAAUAUAU [Samwise Clockwise 22 - Jieux - Same State 2] | 270 | 399
ACAAUACAUGAGGAUCACCCAUGUUAGCUGGGCGAAGGAUAUGUAGAUGGAUAAAAAUAUGCAGAAGGUCGAUAAC [JR_SS001_Sub209] | 68.7 | 109
ACCCGAAAGACGUAGGAUAUGUGGUCACCGACAUGAGGAUCACCCAUGUAUGCGGGAGAAUGGGUGCAGAAGGACGCUGUUCGGU [Antilera] | 21.9 | 192
